Source: patent US20200270704A1 (University of Texas, published 2020)

Biological target: T1, NY-ESO-1 (human, UniProt P78358 1-180, limits assumed)
T1 construct: Tumor antigen; coated on ELISA plates (ThermoFisher or RayBiotech) and amine-coupled to a CM5 chip for SPR (RayBiotech); also called NY-ESO-1/CTAG1B
Experiment: SPR, NY-ESO-1 immobilised on CM5, antibody as analyte, bivalent analyte model
Description: Binding experiments were performed in HBS-EP buffer (10 mM HEPES pH 7.4, 150 mM NaCl, 3.4 mM EDTA, and 0.005% P20 surfactant). Serially diluted antibodies were injected at a flow rate of 30 μL/min for 60 s with a dissociation time of 5 min. The chip was regenerated after each run by sequential injection of 10 mM glycine, pH 3, and 500 mM arginine, pH 8 for 1 min each. For each run, a bovine serum albumin (BSA)-coupled surface was used to subtract non-specific receptor binding.

T1 sequence (P78358 whole entry): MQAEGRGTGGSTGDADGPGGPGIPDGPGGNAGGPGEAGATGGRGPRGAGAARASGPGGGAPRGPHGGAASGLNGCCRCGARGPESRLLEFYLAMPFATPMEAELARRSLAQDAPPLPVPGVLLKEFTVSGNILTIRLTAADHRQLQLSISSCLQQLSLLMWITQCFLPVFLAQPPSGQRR

- binding result: binds
B1: BC2-3G1 (antibody, V domains shown)
VH: QVQLQQSGPGLVKPSQTLSLTCAISGDSVSSNSAAWNWIRQSPSRGLEWLGRTYYRSKWYNDYAVSVKSRITINPDTSKNQFSLQLNSVTPEDTAVYYCARDLGIAAAGDFDYWGQGTLVTVSS
VL: EIVLTQSPATLSLSPGERATLSCRASQGVSSYLAWYQQKPGQAPRLLIYDASNRATGIPARFSGSGSGTDFTLTISSLEPEDFAVYYCHQGSNWPTFGGGTKVEI
notes: also called BC2-3G lineage member 1; BC2-3G sub-lineage 1
